Legend:
[1] = molecular target: T1, human Siglec-15, full length, expressed on cells (human, UniProt Q6ZMC9 20-328); experiment: IgG1 titration, flow cytometry on MOLM-13 human Siglec-15 cells
T1 construct: also called hS15; MOLM-13 Siglec-15 expressing cells
T1 sequence: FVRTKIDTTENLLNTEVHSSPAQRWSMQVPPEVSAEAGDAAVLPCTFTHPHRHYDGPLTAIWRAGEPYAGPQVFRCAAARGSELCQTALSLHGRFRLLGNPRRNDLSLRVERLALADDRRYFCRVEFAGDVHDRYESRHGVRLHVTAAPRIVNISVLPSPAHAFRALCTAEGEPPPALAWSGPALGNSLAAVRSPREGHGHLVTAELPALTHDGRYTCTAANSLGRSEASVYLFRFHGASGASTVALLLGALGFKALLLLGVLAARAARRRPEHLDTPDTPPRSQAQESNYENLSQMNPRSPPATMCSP

[2] = molecular target: T2, mouse Siglec-15, full length, expressed on HEK293T cells (mouse); experiment: IgG1 titration, flow cytometry on HEK293T cells expressing mouse Siglec-15
T2 construct: also called mS15; HEK293T cells expressing mouse Siglec-15
T2 chain: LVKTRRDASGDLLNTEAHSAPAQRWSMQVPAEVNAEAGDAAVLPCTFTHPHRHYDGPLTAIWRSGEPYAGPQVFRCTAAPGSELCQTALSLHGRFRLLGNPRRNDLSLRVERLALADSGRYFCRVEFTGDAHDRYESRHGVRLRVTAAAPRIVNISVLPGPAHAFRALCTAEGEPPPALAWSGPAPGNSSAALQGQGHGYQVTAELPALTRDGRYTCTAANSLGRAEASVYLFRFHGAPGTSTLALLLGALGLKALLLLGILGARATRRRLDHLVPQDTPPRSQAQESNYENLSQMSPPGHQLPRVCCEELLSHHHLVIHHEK

[3] = molecular target: T3, truncated human Siglec-15 comprising only domain 2 (D2), expressed on HEK293T cells (human, UniProt Q6ZMC9 168-251, limits assumed); experiment: flow cytometry on HEK293T cells expressing domain 2 only (FIG. 16)
T3 construct: also called domain 2-only human Siglec-15; Siglec-15 Domain 2 (D2) HEK293T cells
T3 sequence: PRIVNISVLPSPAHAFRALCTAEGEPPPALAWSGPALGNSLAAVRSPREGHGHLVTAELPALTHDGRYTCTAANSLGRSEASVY

B1: ZLA-1214-H05 (antibody, V domains shown)
VH: QVQLVQSGAEVKKPGASVKVSCKASGYTFTSYGISWVRQAPGQGLEWMGWISAYNGNTNYAQKLQGRVTMTTDTSTSTAYMELRSLRSDDTAVYYCARMSGYYGMDVWGQGTLVTVSS
VL: DIQLTQSPSSLSASVGDRVTITCQASQGISNYLNWYQQKPGKAPKLLIYDASNLETGVPSRFSGSGSGTDFTFTISSLQPEDIATYYCQQYDNLPLTFGGGTKLEIK
notes: Fully human, from phage display
Question: How did the EC50 [1] turn out when B1 was run?
Answer: 0.593 mg/L

Question: What about the EC50 [2] of the same binder?
Answer: 0.561 mg/L

Question: Does B1 bind [3]?
Answer: no binding

From patent US20250361297A1 (ADAPTAM THERAPEUTICS S L, published 2025)
